Where no end group is shown, it is not given here.
B1: NCoR ID1 peptide (peptide)
peptide: RTHRLITLADHICQIITQDFARN
modifications: not fully specified
notes: source: synthetic peptide, bought: LifeTein
B2: mouse NCoR RID ΔID2 mutant (domain or fragment)
chain: QVPRTHRLITLADHICQIITQDFARNQVPSQASTSTFQTSPSALSSTPVRTKTSSRYSPESQSQTVLHPRPGPRVSPENLVDKSRGSRPGKSPERSHIPSEPYEPISPPQGPAVHEKQDSMLLLSQRGVDPAEQRSDSRSPGSISYLPSFFTKLESTSPMVKSKKQEIFRKLNSSGGGDSDMAAAQPGTEIFNLPAVTTSGAVSSRSHSFADPASNLGTEDTTRKALMGSFDDKVEDHGVVMSHPVGIMPGSASTSVVTSSEARRDE
B3: mouse NCoR receptor interaction domain (residues 1942 to 2208 in the X50 splice variant), wild type (domain or fragment)
chain: QVPRTHRLITLADHICQIITQDFARNQVPSQASTSTFQTSPSALSSTPVRTKTSSRYSPESQSQTVLHPRPGPRVSPENLVDKSRGSRPGKSPERSHIPSEPYEPISPPQGPAVHEKQDSMLLLSQRGVDPAEQRSDSRSPGSISYLPSFFTKLESTSPMVKSKKQEIFRKLNSSGGGDSDMAAAQPGTEIFNLPAVTTSGAVSSRSHSFADPASNLGLEDIIRKALMGSFDDKVEDHGVVMSHPVGIMPGSASTSVVTSSEARRDE
B4: NCoR ID2 peptide (peptide)
peptide: DPASNLGLEDIIRKALMGSFDDK
modifications: not fully specified
notes: as for B1
B5: human REV-ERBβ ligand-binding domain (residues 381 to 579) (domain or fragment, UniProt Q14995 381-579, looked up)
chain: HLVCPMSKSPYVDPHKSGHEIWEEFSMSFTPAVKEVVEFAKRIPGFRDLSQHDQVNLLKAGTFEVLMVRFASLFDAKERTVTFLSGKKYSVDDLHSMGAGDLLNSMFEFSEKLNALQLSDEEMSLFTAVVLVSADRSGIENVNSVEALQETLIRALRTLIMKNHPNEASIFTKLLLKLPDLRSLNNMHSEELLAFKVHP
notes: cloned into pET46; Used ligand-free (apo) or loaded with heme (a small molecule; 1.05 to 2 molar equivalents); the two states are told apart by the assays; also called REV-ERBβ LBD; LBD; source: E. coli BL21(DE3), purified (IMAC, 3C protease cleavage, size exclusion); 15N-labelled in M9 minimal media for NMR; not shown: 6xHis, N-terminal, cleaved

What was measured:
[1] = target: B5; assay: ITC; heme-bound LBD (500 μM with 1.05 molar equivalents of heme, syringe) titrated into ID peptide (50 μM, cell); 25°C; 20 mM Hepes pH 7.4, 50 mM KCl, 0.5 mM EDTA, 5 mM TCEP; A + B ↔ AB model in SEDPHAT; conditions: both partners purified
[2] = target: B5; assay: ITC; apo LBD (500 μM, syringe) titrated into ID peptide (50 μM, cell); 25°C; 20 mM Hepes pH 7.4, 50 mM KCl, 0.5 mM EDTA, 5 mM TCEP; A + B ↔ AB model in SEDPHAT; conditions: both partners purified
[3] = target: B5; assay: ITC; apo LBD (300 μM, syringe; for WT RID 2 × 20 injections of 150 μM) titrated into RID construct (15 μM, cell); 25°C; Hepes assay buffer; WT RID fit to two nonsymmetric sites, microscopic K model; ΔID2 fit to A + B ↔ AB; conditions: both partners purified
[4] = target: B5; assay: ITC; heme-bound LBD (300 μM, syringe) titrated into RID construct (15 μM, cell), 4 molar equivalents; 25°C; Hepes assay buffer; WT RID fit to A + B ↔ AB; conditions: both partners purified
[5] = target: B4; assay: ITC; heme-bound LBD (500 μM with 1.05 molar equivalents of heme, syringe) titrated into ID peptide (50 μM, cell); 25°C; 20 mM Hepes pH 7.4, 50 mM KCl, 0.5 mM EDTA, 5 mM TCEP; A + B ↔ AB model in SEDPHAT; conditions: both partners purified
[6] = target: B1; assay: as above; conditions: both partners purified
[7] = target: B3; assay: ITC; heme-bound LBD (300 μM, syringe) titrated into RID construct (15 μM, cell), 4 molar equivalents; 25°C; Hepes assay buffer; WT RID fit to A + B ↔ AB; conditions: both partners purified
[8] = target: B3; assay: ITC; apo LBD (300 μM, syringe; for WT RID 2 × 20 injections of 150 μM) titrated into RID construct (15 μM, cell); 25°C; Hepes assay buffer; WT RID fit to two nonsymmetric sites, microscopic K model; ΔID2 fit to A + B ↔ AB; conditions: both partners purified
[9] = target: B2; assay: as above; conditions: both partners purified
[10] = target: B3; assay: as above; conditions: both partners purified
[11] = target: B3; assay: ITC; heme-bound LBD (300 μM, syringe) titrated into RID construct (15 μM, cell), 4 molar equivalents; 25°C; Hepes assay buffer; WT RID fit to A + B ↔ AB; conditions: both partners purified
[12] = target: B4; assay: ITC; apo LBD (500 μM, syringe) titrated into ID peptide (50 μM, cell); 25°C; 20 mM Hepes pH 7.4, 50 mM KCl, 0.5 mM EDTA, 5 mM TCEP; A + B ↔ AB model in SEDPHAT; conditions: both partners purified
[13] = target: B1; assay: as above; conditions: both partners purified
[14] = system: Bmal1 REV-RE promoter luciferase in HEK293T cells; assay: Bmal1-luciferase transcriptional repression assay; assay type: cell-based, human; conditions: for fold repression of Bmal1-luciferase: HEK293T, 24 hours, relative to empty vector, n = 3 independent experiments
Description: The human REV-ERBβ LBD (residues 381 to 579) was previously cloned into the pET46 vector ([18]). The mouse NCoR RID (residues 1942 to 2208 in the X50 splice variant), which has 87% sequence identity to human NCoR RID (100% sequence identity in the ID motifs), was previously cloned into the pET32 vector ([29]). NCoR RID mutants were generated by site-directed mutagenesis: The ID1 CoRNR box motif was mutated from […] to […] (ΔID1 and ΔID1ΔID2), and the ID2 CoRNR box motif was mutated from LEDIIRKAL to TEDTTRKAL (ΔID2 and ΔID1ΔID2), as these mutations were previously reported to disrupt CoRNR box binding ([10], [30]). Heme (Sigma-Aldrich, no. 51280) was prepared either as a 1 mM stock in dimethyl sulfoxide (DMSO) stored at 4°C or 50 mM stock in 0.2 M NaOH (solutions prepared in 0.2 M NaOH were always made fresh immediately before the experiment), where indicated. […] Human embryonic kidney (HEK) 293T cells (American Type Culture Collection, no. CRL-11268) were cultured in Dulbecco’s modified eagle medium (DMEM) supplemented with 10% fetal bovine serum, 2 mM L-glutamine, and 1% penicillin-streptomycin at 37°C and 5% CO2 under standard culture conditions. The pcDNA3.1^+ expression vector containing full-length human REV-ERBβ ([31]) and the pGL3-Bmal1-luciferase construct containing the Bmal1 promoter (−816 to +99 of the mouse Bmal1 promoter region) were used in HEK293T cell transfections. […]
HEK293T cells were plated at 1.5 × 10^3 cells per well in 96-well flat-bottom plates in DMEM 24 hours before transfection. […] Luciferase activity was harvested 24 hours after transfection with Britelite Plus (PerkinElmer) and read using a BioTek Synergy plate reader. Raw luminescence values of REV-ERBβ–transfected wells were normalized to pcDNA3.1 empty vector transfection wells individually for each Bmal1-luciferase construct to determine fold repression by REV-ERBβ for each Bmal1-luciferase construct. […]

Molecule: B1
- Kd [1]: 2400 nM
- Kd [2]: 490 nM

Molecule: B2
- Kd [3]: 130 nM

Molecule: B3
- Kd [4]: 99 nM

Molecule: B4
- Kd [2]: 84000 nM

Molecule: B5
- dH [5]: 3 kcal/mol
- dH [6]: 1.7 kcal/mol
- stoichiometry N [7]: ~2 LBD per RID
- KD site 1 [8]: 12 nM
- KD site 2 [8]: 740 nM
- dH site 1 [8]: -8.3 kcal/mol
- dH site 2 [8]: 3.2 kcal/mol
- dH [9]: -9.4 kcal/mol
- stoichiometry N [10]: 2 LBD per RID
- dH [11]: 1.7 kcal/mol
- dH [12]: -9.7 kcal/mol
- dH [13]: -7.7 kcal/mol

B6: REV-ERBβ: full-length human REV-ERBβ expressed from pcDNA3.1 vector in HEK293T cells (protein)
chain: HLVCPMSKSPYVDPHKSGHEIWEEFSMSFTPAVKEVVEFAKRIPGFRDLSQHDQVNLLKAGTFEVLMVRFASLFDAKERTVTFLSGKKYSVDDLHSMGAGDLLNSMFEFSEKLNALQLSDEEMSLFTAVVLVSADRSGIENVNSVEALQETLIRALRTLIMKNHPNEASIFTKLLLKLPDLRSLNNMHSEELLAFKVHP
modifications: left off: 6xHis, N-terminal, cleaved
notes: full-length human REV-ERBβ expressed from pcDNA3.1 vector in HEK293T cells
- fold repression of Bmal1-luciferase ([14]; WT Bmal1 construct): approximately ninefold
- fold repression of Bmal1-luciferase ([14]; mutant Bmal1 constructs (one or both DNA binding sites within REV-RE mutated)): approximately threefold
- reduction of repression in mutant vs WT Bmal1 constructs ([14]; pRORE, dRORE or p/dRORE mutants vs WT, ***P < 0.001 by Student's t test): more than half

— paper PMC7840129, “Structural basis for heme-dependent NCoR binding to the transcriptional repressor REV-ERBβ” (Science Advances, 2021)
